Data published in publication PMC3314109.

Biological target: the mutants of both surface loops (39-loop and 60-loop mutants of FXa)
Assay: prothrombinase activity titration

- Kd: 1 to 2 nM
Substance: factor Va (thrombin activated factor V) (from UniProt P12259 29-737; P12259 1574-2224) (complex)
